Here are results for one protein from paper PMC1894825, “Transcriptional Regulation of Multi-Drug Tolerance and Antibiotic-Induced Responses by the Histone-Like Protein Lsr2 in M. tuberculosis” (PLoS Pathogens, 2007).

This data set deals with the molecule itself. In words: cross-linking.

B1: recombinant Lsr2 (M. tuberculosis, Rv3597c) (natural protein)
chain: not shown
notes: also called rLsr2; not shown: His6, N-terminal, kept
In the case of B1, the binding result is given as “binds”.
